# B1: Exo70 wild type, HA-tagged and Flag-tagged copies co-expressed [rat] / itself (parent)
# chain: MIPPQEASARRREIEDKLKQEEETLSFIRDSLEKSDQLTKNMVSILSSFESRLMKLENSIIPVHKQTENLQRLQENVEKTLSCLDHVISYYHVASDTEKIIREGPTGRLEEYLGSMAKIQKAVEYFQDNSPDSPELNKVKLLFERGKESLESEFRSLMTRHSKVISPVLVLDLISADDELEVQEDVVLEHLPESVLQDVIRISRWLVEYGRNQDFMNVYYQIRSSQLDRSIKGLKEHFRKSSSSSGVPYSPAIPNKRKDTPTKKPIKRPGRDDMLDVETDAYIHCVSAFVRLAQSEYQLLMGIIPEHHQKKTFDSLIQDALDGLMLEGENIVSAARKAIIRHDFSTVLTVFPILRHLKQTKPEFDQVLQGTAASTKNKLPGLITSMETIGAKALEDFADNIKNDPDKEYNMPKDGTVHELTSNAILFLQQLLDFQETAGAMLASQETSSSATSYNSEFSKRLLSTYICKVLGNLQLNLLSKSKVYEDPALSAIFLHNNYNYILKSLEKSELIQLVAVTQKTAERSYREHIEQQIQTYQRSWLKVTDYIAEKNLPVFQPGVKLRDKERQMIKERFKGFNDGLEELCKIQKAWAIPDTEQRDKIRQAQKSIVKETYGAFLHRYSSVPFTKNPEKYIKYRVEQVGDMIDRLFDTSA
# B2: Exo70-Flag [rat] / HA-Sec8 [not stated] (parent)
# chain 1: B1 chain
# chain 2: MAAEAAGGKYRSTVSKSKDPSGLLISVIRTLSTSDDVEDRENEKGRLEEAYEKCDRDLDELIVQHYTELTTAIRTYQSITERITNSRNKIKQVKENLLSCKMLLHCKRDELRKLWIEGIEHKHVLNLLDEIENIKQVPQKLEQCMASKHYLSATDMLVSAVESLEGPLLQVEGLSDLRLELHSKKMNLHLVLIEELHRHLYIKSTSRVVQRNKEKGKMSSHGKDASPGPLIDVSNISTPRKFLDATQYSAAGSSSVREMNLQDIKEDLDCDPEENSTLFMGILIQGLARLKKIPETVKAIKERLEQELKQIVKRSTTQVADSAYQRGESLTVDNQPRLLLELLELLFDKFNAVASAHSIVLGYLQDSVGTQPTQQEEIKLYDMADVWVKIQDVLQMLLTEYLDMKNTRTASEPSAQLSYASTGREFAAFFAKKKPQRPKNSLFKFESSSHAISMSAYLREQRRELYSRSGELQGGPDDNLIEGGGTKFVCKPGARNITVIFHPLLRFIQEIEHALGLGPAKQCLLREFLTIYIKNIFLNQVLTEINKEIEGVTKTSDPLKILANADTMKVLGVQRPLLQSTIIVEKTVQDLMNLMHDLSAYSDQFLNMVCVKLQEYKDTCSTAYRGIVQSEEKLVISASWAKDDDISRLLKSLPNWTNMAQPKQLRPKREEEEDFIRAAFGKESEVLIGNLGDKLIPPQDILRDVSDLKALANMHESLEWLAGRTKSAFSSLSASQMLSPAQESHVNMDLPPVSEQIMQTLSELAKSFQDMADRCLLVLHLEVRVHCFHYLIPLAKEGNYAIVANVESMDYDPLVVKLNKDISAMEEAMSASLQQHKFQYIFEGLGHLISCILINGAQYFRRISESGIKKMCRNIFVLQQNLTNITMSREADLDFARQYYEMLYNTADELLNLVVDQGVKYTELEYIHALTLLHRSQTGVGDQTTQNTRLQRLKEIICEQAAIKQATKDKKITTV
# B3: Exo70-Flag [rat] / HA-Sec6 [not stated] (parent)
# chain 1: B1 chain
# chain 2: MCKDSACFSTMKETDLEAVATAVQRVAGMLQRPDQLDKVEQYRRREARKKASVEARLKAAIQSQLDGVRTGLSQLHNALNDVKDIQQSLADVSKDWRQSINTIESLKDVKDAVVQHSQLAAAVENLKNIFSVPEIVRETQDLIEQGALLQAHRKLMDLECSRDGLMCEQYRMDSGNKRDMTLIHGYFGSTQGLSDELAKQLWMVLQRSLVTVRRDPTLLVSVVRIIEREEKIDRRILDRKKQTGFVPPGRPKNWKEKMFAVLDRTVTTRIEGTQADTRESDKMWLVRHLEIIRKYVLDDLVIAKNLLVQCFPPHYDIFKNLLSMYHQALSIRMQDLASEDLEANEIVSLLTWVLNTYTSAEMMGNVELAPEVDVNALEPLLSPNVVSELLDTYMSTLTSNIIAWLRKALETDKKDWSKETEPEADQDGYYQTTLPAIVFQMFEQNLQVAAQISEDLKTKVLVLCLQQMNSFLSRYKEEAQLYKEEHLRNRQHPHCYVQYMVAIINNCQTFKESIISLKRKYLKPETEESLCQSQPSMDGILDAIAKEGCSSLLEEVFLDLEQHLNELMTKKWMLGSNAVDIICVTVEDYFNDFAKIKKPYKKRMTAEAHRRVVVEYLRAVMQKRISFRSAEERKEGAEKMVREAEQLRFLFRKLASGFGEDADGHCDTIVAVAEVIKLTDPSLLYLEVSTLVSKYPDIRDDHIGALLALRGDASRDMKQTIMETLEQGPMQASPNYVPIFQEIVVPSLNVAKLLK
# Variants of: B1
# Test: co-immunoprecipitation (IP: HA, blot: Flag)
# Conditions: with itself; 293T cells; with Myc-ULK1 co-expressed; parent: 0.35
row,Variant,response (relative band intensity)
1,chain 1 S59A,1.16
2,chain 1 S89A,1
3,chain 1 S47A S59A S89A,2.44
4,chain 1 S47A,0.87

# Same assay, conditions: with itself; 293T cells; without Myc-ULK1; parent: 1
row,Variant,response (relative band intensity)
1,chain 1 S59A,1.31
2,chain 1 S89A,1.17
3,chain 1 S47A S59A S89A,1.49
4,chain 1 S47A,1

# Same assay, conditions: with itself; 293T cells; parent: 1
row,Variant,response (relative band intensity)
1,chain 1 S89D,0.46
2,chain 1 S47D S59D S89D,0.03
3,chain 1 S59D S89D,0.41
4,chain 1 S47D S89D,0.18

# Variants of: B2
# Test: co-immunoprecipitation (IP: HA, blot: Flag)
# Conditions: with HA-Sec8; 293T cells; parent: 1.03
row,Variant,response (relative band intensity)
1,chain 1 S47D S59D S89D,0.45

# Variants of: B3
# Test: co-immunoprecipitation (IP: HA, blot: Flag)
# Conditions: with HA-Sec6; 293T cells; parent: 1
row,Variant,response (relative band intensity)
1,chain 1 S47D S59D S89D,0.31
